The text below walks through data of patent publication US20050271651A1, “Inhibition of bright function as a treatment for excessive immunoglobulin production” (Oklahoma Medical Research Foundation, published 2005).

First the molecules themselves.
B2: mouse Bright, native (untagged) wild-type (other, UniProt Q62431 1-601, looked up)
chain: MKLQAVMETLIQRQQRARQELEARQAPPPPPPEPTGVRARTTMTDEDREPENARMHRTQMAALAAMRAAAAGLGHPSSPGGSEDGPPISGDEDTAREGTLSSPALHGSVLEGAGHAEGDRHLMDVGSDDDDTKSKWEEQELEELGEEEEEEEEEDDFEEEEEEEEGLGPPESASLGTAGLFTRKAPPAQAFRGDGGPRMLSGPERLGPGPAHPSHMASQMPPPDHGDWTFEEQFKQLYELDADPKRKEFLDDLFSFMQKRGTPVNRIPIMAKQVLDLFMLYVLVTEKGGLVEVINKKLWREITKGLNLPTSITSAAFTLRTQYMKYLYPYECERRGLSSPNELQAAIDSNRREGRRQSFGGSLFAYSPSGAHSMLPSPKLPVTPLGLAASTNGSSITPAPKIKKEEDSAIPITVPGRLPVSLAGHPVVAAQAAAVQAAAAQAAVAAQAAALEQLREKLESTEPPEKKMALVADEQQRLMQRAVQQSFLAMTAQLPMNIRINSQASESRQDSAVSLTSANGSNSISMSVEMNGIVYTGVLFAQPPPPTAPSAPGKGGVSSIGTNTTTGSRTGASGSTVSGGQVGLPGVSTPTMSSTSNNSLP
notes: range 1-601; Untagged protein, tested in three forms: expressed in CHO cells, in vitro translated, or endogenous in the mouse B cell lines BCg3R-1d and M12g3Ri; Found as a dimer in solution by size exclusion chromatography; also called native Bright; wild-type Bright

In data set [1] the target is T1, mouse Bright, native (untagged) wild-type (mouse) (UniProt Q62431).
T1 sequence (looked up): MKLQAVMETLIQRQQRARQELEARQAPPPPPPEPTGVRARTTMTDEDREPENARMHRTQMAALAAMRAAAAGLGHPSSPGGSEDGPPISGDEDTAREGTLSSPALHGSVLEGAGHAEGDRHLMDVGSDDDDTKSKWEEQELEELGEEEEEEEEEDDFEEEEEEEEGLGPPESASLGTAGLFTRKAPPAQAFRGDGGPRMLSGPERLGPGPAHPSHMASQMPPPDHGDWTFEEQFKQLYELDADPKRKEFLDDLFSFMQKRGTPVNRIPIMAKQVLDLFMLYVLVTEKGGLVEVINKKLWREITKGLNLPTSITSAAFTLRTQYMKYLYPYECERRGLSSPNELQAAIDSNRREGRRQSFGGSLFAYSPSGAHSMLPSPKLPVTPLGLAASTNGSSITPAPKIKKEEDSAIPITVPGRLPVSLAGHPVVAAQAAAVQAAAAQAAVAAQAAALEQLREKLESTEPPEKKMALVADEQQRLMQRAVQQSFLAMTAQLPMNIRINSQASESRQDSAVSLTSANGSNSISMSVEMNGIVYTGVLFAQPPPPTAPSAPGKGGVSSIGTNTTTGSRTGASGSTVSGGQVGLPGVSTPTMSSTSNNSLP
The data set can be described thus: cell-based or functional assay.

For data set [2], the target named is mouse Bright, wild-type, C-terminal myc-his tagged (mouse) (UniProt Q62431). Nature of the data set: cell-based or functional assay.
The target in data set [3] is human Btk, endogenous in the B cell lines CL01 and 300212 (human, UniProt Q06187 2-659). Nature of the data set: EMSA supershift with anti-Btk, nuclear extracts of CL01 and 300212 cells. Here is the method:
FIG. 7—Btk associates with Bright in a subset of DNA-bound complexes. Mobility-shift assays were performed with nuclear extracts from two B cell lines (CL01 and 300212) and the T cell line, Molt-4. Anti-sera to CDP or the pleckstrin domain of Btk was added as in FIG. 2A-D. In some cases the anti-Btk sera was diluted 1:10 with PBS (0.1) prior to addition. Data are representative of six experiments.
Electrophoretic mobility shift assays (EMSAs). Nuclear extracts were prepared by hypotonic lysis, protein concentrations were quantified with Bradford reagents (BioRad, Richmond, Calif.), and EMSAs were performed in 4% nondenaturing acrylamide gels after incubation for 15 min at 37° C. with gamma-³²P-labeled probe, as previously described (Buchanan et al., 1995). The prototypic Bright binding site (a 150 base pair Bam HI-Fok I fragment called bf150) from the S107 V1 5′ flanking sequence (Webb et al., 1991) was used as a probe. In some instances, antibodies were added 5 min before incubation with the probe. […] A double-stranded oligo containing the 45 base pair foot-printed Bright binding site within bf150 described in Webb et al. (1991) was used as a specific competitor in increasing concentrations and a mutated version of that oligonucleotide containing the double-stranded sequence corresponding to 5′-[…]-3′ (SEQ ID NO:6) was used as a non-specific competitor. […]
(In general: A gel shift assay detects complexes by their altered migration in electrophoresis.)

Data set [4] deals with the molecule itself. Nature of the data set: size exclusion chromatography of nuclear extracts, western blot of fractions. As for the experimental part:
(§1) FIGS. 11A-B—Tagged Bright proteins dimerize with native Bright. (FIG. 11A) Nuclear extracts from cells expressing Bright protein were subjected to size exclusion chromatography and protein fractions were analyzed for Bright by western blotting (lower panel). Data are presented graphically relative to molecular weight standards in the upper panel and are representative of four experiments. (FIG. 11B) C-terminal myc-his tagged Bright was either singly or coexpressed in CHO cells with native Bright. […] Immunoprecipitations using anti-myc Ab (middle panel) and anti-Sp1 as an isotype control (bottom panel) were performed with each of the transfected extracts and developed with anti-Bright reagents. Arrows indicate immunoglobulin heavy chain cross-reactive with the secondary reagent. Data are representative of two separate experiments.
Column chromatography. Nuclear extracts from CHO cells transfected with the full-length Bright expression plasmid (Herrscher et al., 1995) were centrifuged at 10,000×g to remove aggregates and applied to a pre-calibrated Bio-Gel A 0.5 m size exclusion column (Bio-Rad, Hercules, Calif.) in 0.05 M Tris-HCl, pH 8.0, 0.1 M KCl and 20% glycerol according to the manufacturer's directions. The column was calibrated before and after use with Bio-Rad gel filtration standards to ensure maintenance of column integrity. […]
A general note: Size exclusion chromatography separates by hydrodynamic size, large species first.

In data set [5] the target is B2. The data set can be described thus: co-expression in CHO cells, anti-myc immunoprecipitation, anti-Bright blot. Here is the method: as §1
To determine if the mutated proteins formed heterodimers with wild-type Bright, his-myc-tagged mutant forms of Bright were co-expressed in CHO cells with native wild-type Bright. Tagged proteins were distinguished from native Bright by the slight size differences in western blots (FIG. 11B) and were confirmed using anti-tag antibodies (not shown). Anti-myc antibodies were used to immunoprecipitate the tagged proteins and blots were developed with anti-Bright (FIG. 11B). In every case, a lower molecular weight band was detected that reflected the presence of native Bright.

Chain of human Btk, endogenous in the B cell lines CL01 and 300212 (Q06187 2-659 limits assumed): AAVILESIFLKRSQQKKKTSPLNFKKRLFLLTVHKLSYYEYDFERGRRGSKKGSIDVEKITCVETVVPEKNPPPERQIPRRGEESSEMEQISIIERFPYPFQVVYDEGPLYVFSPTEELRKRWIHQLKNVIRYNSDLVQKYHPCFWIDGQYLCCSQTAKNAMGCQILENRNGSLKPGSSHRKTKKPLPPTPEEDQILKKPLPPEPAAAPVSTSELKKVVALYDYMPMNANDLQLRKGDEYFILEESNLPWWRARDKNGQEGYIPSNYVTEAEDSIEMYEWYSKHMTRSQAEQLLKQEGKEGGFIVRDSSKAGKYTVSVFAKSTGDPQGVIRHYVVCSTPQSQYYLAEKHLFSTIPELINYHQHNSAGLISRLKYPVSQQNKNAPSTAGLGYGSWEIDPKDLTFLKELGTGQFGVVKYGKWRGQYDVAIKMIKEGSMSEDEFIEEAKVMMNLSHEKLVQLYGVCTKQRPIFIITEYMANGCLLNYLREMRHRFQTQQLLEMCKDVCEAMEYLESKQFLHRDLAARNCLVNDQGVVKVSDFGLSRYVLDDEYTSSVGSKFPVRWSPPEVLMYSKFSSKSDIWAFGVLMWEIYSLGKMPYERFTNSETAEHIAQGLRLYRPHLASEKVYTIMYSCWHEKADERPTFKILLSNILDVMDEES

Turning to “Bruton's tyrosine kinase (Btk), wild-type, ectopically expressed or recombinant (enzyme)”, in data set [1], the Bright DNA-binding activity remaining after competitor DNA (EMSA, in vitro translated Bright plus recombinant Btk) was below 50 % reduction. Take Btk xid mutant (R28C) (enzyme): the V1 transcription relative to wild-type Btk (Real Time PCR, CHO cells) in data set [2] is 50%.

B1: human Bright (B cell regulator of IgH transcription) (other)
chain: MKLQAVMETLLQRQQRARQELEARQQLPPDPPAAPPGRARAAPDEDREPESARMQRAQMAALAAMRAAAAGLGHPASPGGSEDGPPGSEEEDAAREGTPGSPGRGREGPGEEHFEDMASDEDMKPKWEEEEMEEDLGEDEEEEEEDYEDEEEEEDEEGLGPPGPASLGTTALFPRKAQPPQAFRGDGVPRVLGGQERPGPGPAHPGGAAHVAPQLQPPDHGDWTYEEQFKQLYELDGDPKRKEFLDDLFSFMQKRGTPVNRIPIMAKQVLDLFMLYVLVTEKGGLVEVINKKLWREITKGLNLPTSITSAAFTLRTQYMKYLYPYECEKRGLSNPNELQAAIDSNRREGRRQSFGGSLFAYSPGGAHGMLSSPKLPVSSLGLAASTNGSSITPAPKIKKEEDSAIPITVPGRLPVSLAGHPVVAAQAAAVQAAAAQAAVAAQAAALEQLREKLESAEPPEKKMALVADEQQRLMQRALQQNFLAMAAQLPMSIRINSQASESRQDSAVNLTGTNGSNSISMSVEINGIMYTGVLFAQPPAPTPTSAPNKGGGGGGGSSSNAGGRGGNTGTSGGQAGPAGLSTPSTSTSNNSLP
notes: Transcription factor; Tested as in vitro translated protein from a full-length clone, and as endogenous protein in nuclear extracts of the human cell lines CL01, K562 and 300212; also called Dril 1; DRIL1
In the case of B1, in data set [3], the binding result is listed as “binds”. As for B2, in data set [4], the binding result was “binds”.

B3: mouse Bright F317A, C-terminal myc-his tagged (other, UniProt Q62431 1-601, looked up)
chain: MKLQAVMETLIQRQQRARQELEARQAPPPPPPEPTGVRARTTMTDEDREPENARMHRTQMAALAAMRAAAAGLGHPSSPGGSEDGPPISGDEDTAREGTLSSPALHGSVLEGAGHAEGDRHLMDVGSDDDDTKSKWEEQELEELGEEEEEEEEEDDFEEEEEEEEGLGPPESASLGTAGLFTRKAPPAQAFRGDGGPRMLSGPERLGPGPAHPSHMASQMPPPDHGDWTFEEQFKQLYELDADPKRKEFLDDLFSFMQKRGTPVNRIPIMAKQVLDLFMLYVLVTEKGGLVEVINKKLWREITKGLNLPTSITSAAATLRTQYMKYLYPYECERRGLSSPNELQAAIDSNRREGRRQSFGGSLFAYSPSGAHSMLPSPKLPVTPLGLAASTNGSSITPAPKIKKEEDSAIPITVPGRLPVSLAGHPVVAAQAAAVQAAAAQAAVAAQAAALEQLREKLESTEPPEKKMALVADEQQRLMQRAVQQSFLAMTAQLPMNIRINSQASESRQDSAVSLTSANGSNSISMSVEMNGIVYTGVLFAQPPPPTAPSAPGKGGVSSIGTNTTTGSRTGASGSTVSGGQVGLPGVSTPTMSSTSNNSLP
notes: range 1-601; not shown: C-terminal myc-his tag from vector pcDNA4/TO/myc-His B
B3: in data set [5], the binding result is “binds”.

B4: mouse Bright double point mutant (W299A and Y330A), C-terminal myc-his tagged (other, UniProt Q62431 1-601, looked up)
chain: MKLQAVMETLIQRQQRARQELEARQAPPPPPPEPTGVRARTTMTDEDREPENARMHRTQMAALAAMRAAAAGLGHPSSPGGSEDGPPISGDEDTAREGTLSSPALHGSVLEGAGHAEGDRHLMDVGSDDDDTKSKWEEQELEELGEEEEEEEEEDDFEEEEEEEEGLGPPESASLGTAGLFTRKAPPAQAFRGDGGPRMLSGPERLGPGPAHPSHMASQMPPPDHGDWTFEEQFKQLYELDADPKRKEFLDDLFSFMQKRGTPVNRIPIMAKQVLDLFMLYVLVTEKGGLVEVINKKLAREITKGLNLPTSITSAAFTLRTQYMKYLYPAECERRGLSSPNELQAAIDSNRREGRRQSFGGSLFAYSPSGAHSMLPSPKLPVTPLGLAASTNGSSITPAPKIKKEEDSAIPITVPGRLPVSLAGHPVVAAQAAAVQAAAAQAAVAAQAAALEQLREKLESTEPPEKKMALVADEQQRLMQRAVQQSFLAMTAQLPMNIRINSQASESRQDSAVSLTSANGSNSISMSVEMNGIVYTGVLFAQPPPPTAPSAPGKGGVSSIGTNTTTGSRTGASGSTVSGGQVGLPGVSTPTMSSTSNNSLP
notes: range 1-601; also called DP; DP Bright; not shown: C-terminal myc-his tag from vector pcDNA4/TO/myc-His B
With B4, the binding result in data set [5] is given as “binds”.

B5: mouse Bright Y330A, C-terminal myc-his tagged (other, UniProt Q62431 1-601, looked up)
chain: MKLQAVMETLIQRQQRARQELEARQAPPPPPPEPTGVRARTTMTDEDREPENARMHRTQMAALAAMRAAAAGLGHPSSPGGSEDGPPISGDEDTAREGTLSSPALHGSVLEGAGHAEGDRHLMDVGSDDDDTKSKWEEQELEELGEEEEEEEEEDDFEEEEEEEEGLGPPESASLGTAGLFTRKAPPAQAFRGDGGPRMLSGPERLGPGPAHPSHMASQMPPPDHGDWTFEEQFKQLYELDADPKRKEFLDDLFSFMQKRGTPVNRIPIMAKQVLDLFMLYVLVTEKGGLVEVINKKLWREITKGLNLPTSITSAAFTLRTQYMKYLYPAECERRGLSSPNELQAAIDSNRREGRRQSFGGSLFAYSPSGAHSMLPSPKLPVTPLGLAASTNGSSITPAPKIKKEEDSAIPITVPGRLPVSLAGHPVVAAQAAAVQAAAAQAAVAAQAAALEQLREKLESTEPPEKKMALVADEQQRLMQRAVQQSFLAMTAQLPMNIRINSQASESRQDSAVSLTSANGSNSISMSVEMNGIVYTGVLFAQPPPPTAPSAPGKGGVSSIGTNTTTGSRTGASGSTVSGGQVGLPGVSTPTMSSTSNNSLP
notes: as for B3
For the molecule B5, in data set [5], the binding result is given as “binds”.

B6: mouse Bright W299A, C-terminal myc-his tagged (other, UniProt Q62431 1-601, looked up)
chain: MKLQAVMETLIQRQQRARQELEARQAPPPPPPEPTGVRARTTMTDEDREPENARMHRTQMAALAAMRAAAAGLGHPSSPGGSEDGPPISGDEDTAREGTLSSPALHGSVLEGAGHAEGDRHLMDVGSDDDDTKSKWEEQELEELGEEEEEEEEEDDFEEEEEEEEGLGPPESASLGTAGLFTRKAPPAQAFRGDGGPRMLSGPERLGPGPAHPSHMASQMPPPDHGDWTFEEQFKQLYELDADPKRKEFLDDLFSFMQKRGTPVNRIPIMAKQVLDLFMLYVLVTEKGGLVEVINKKLAREITKGLNLPTSITSAAFTLRTQYMKYLYPYECERRGLSSPNELQAAIDSNRREGRRQSFGGSLFAYSPSGAHSMLPSPKLPVTPLGLAASTNGSSITPAPKIKKEEDSAIPITVPGRLPVSLAGHPVVAAQAAAVQAAAAQAAVAAQAAALEQLREKLESTEPPEKKMALVADEQQRLMQRAVQQSFLAMTAQLPMNIRINSQASESRQDSAVSLTSANGSNSISMSVEMNGIVYTGVLFAQPPPPTAPSAPGKGGVSSIGTNTTTGSRTGASGSTVSGGQVGLPGVSTPTMSSTSNNSLP
notes: as for B3
With B6, the binding result in data set [5] was “binds”.
